Measured values as given in patent publication US20250346679A1 (INVOX PHARMA, published 2025).

Assays:
hCD137-mFc-Avi = molecular target: T1, hCD137-mFc-Avi (human; mouse, UniProt Q07011 24-186, biotin on the Avi sequence where the biotinylated form was used); experiment: SPR, mAb^2 captured by anti-human Fab, antigen in flow
T1 construct: also called human CD137-mFc-Avi; dimeric human CD137; not shown: mouse IgG2a Fc domain (mIgG2a Fc)

[1] = molecular target: T2, human PD-L1, cell-surface (human, UniProt Q9NZQ7 19-290); experiment: cell-based or functional assay
T2 sequence (Q9NZQ7 19-290): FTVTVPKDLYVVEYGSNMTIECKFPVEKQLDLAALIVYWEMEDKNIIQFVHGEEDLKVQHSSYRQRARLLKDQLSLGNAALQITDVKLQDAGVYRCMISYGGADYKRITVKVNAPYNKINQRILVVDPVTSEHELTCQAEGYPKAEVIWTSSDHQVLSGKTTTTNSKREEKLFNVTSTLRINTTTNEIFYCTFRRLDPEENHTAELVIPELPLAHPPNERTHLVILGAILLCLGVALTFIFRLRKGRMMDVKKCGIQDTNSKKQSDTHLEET

[2] = molecular target: T2, human PD-L1, cell-surface; experiment: flow cytometry on activated primary human CD4+ T cells (carry PD-L1 and CD137); activated primary human CD4+ T cells (carry PD-L1 and little CD137)
Method: CD137 is rapidly expressed to high levels on activated CD8⁺ T cells and also on activated CD4⁺ T cells with lower levels (Xue-Zhong Yu et al, 2013), therefore Pan T cells were stimulated for 24 hours using Dynabeads™ Human T-Activator CD3/CD28 beads (Thermo, 11132D) according to manufacturer's instructions.
Dead cells were excluded and the fluorescence in the APC channel (638 nm 660/20) was measured to show test antibody binding. The geometric Mean Fluorescence Intensity (GMFI) values were plotted vs the log concentration of antibody and the resulting curves were fitted using the log (agonist) vs response equation in GraphPad Prism.

hPD-L1-His-Avi = molecular target: T3, hPD-L1-His-Avi (human); experiment: SPR, mAb^2 captured on immobilised human PD-L1 His, then hCD137-mFc-Avi (100 nM) in flow
T3 construct: also called human PD-L1-His Avi; Human PD-L1 His
T3 sequence (chain, as listed by the source limits assumed): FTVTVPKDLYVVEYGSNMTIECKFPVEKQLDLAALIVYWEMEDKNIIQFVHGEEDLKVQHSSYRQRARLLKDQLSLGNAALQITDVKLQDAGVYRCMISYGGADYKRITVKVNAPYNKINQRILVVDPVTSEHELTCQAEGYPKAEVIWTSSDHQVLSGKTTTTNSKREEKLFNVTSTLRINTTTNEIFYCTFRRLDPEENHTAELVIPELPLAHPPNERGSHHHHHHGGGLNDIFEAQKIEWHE
Method: One flow cell was activated and deactivated without any protein immobilised for background subtraction. The antibodies, diluted to 5 μg/ml in HBS-EP buffer, were captured at a flow rate of 30 μl/min to achieve a density of about 200-300 RU. Binding of human CD137-mFc-Avi was tested at 0 and 100 nM for 5 min at 30 μl/min, followed by a dissociation step of 2.5 min. The sensor chip was regenerated after each cycle with 20 mM NaOH for 60 seconds at a flow rate of 30 μl/min.

[3] = molecular target: human CD137, cell-surface (human, UniProt Q07011 24-255); experiment: cell-based or functional assay

T1 sequence (Q07011 24-186): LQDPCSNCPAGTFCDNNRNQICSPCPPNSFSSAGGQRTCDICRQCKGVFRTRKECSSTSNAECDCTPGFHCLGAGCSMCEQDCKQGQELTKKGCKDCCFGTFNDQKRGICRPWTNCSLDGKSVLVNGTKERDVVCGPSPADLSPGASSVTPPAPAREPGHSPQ

B1: FS22-172-003-AA/E12v2 (bispecific antibody, human IgG1, kappa, L234A L235A)
heavy: EVQLVQSGAEVKRPGASVKVSCKASGYPFTSYGISWVRQAPGQGLEWMGWISAYSGGTNYAQKLQGRVTMTTDTSTSTAYMELRSLRSDDTAVYYCARDLFPTIFGVSYYYYWGQGTLVTVSSASTKGPSVFPLAPSSKSTSGGTAALGCLVKDYFPEPVTVSWNSGALTSGVHTFPAVLQSSGLYSLSSVVTVPSSSLGTQTYICNVNHKPSNTKVDKKVEPKSCDKTHTCPPCPAPEAAGGPSVFLFPPKPKDTLMISRTPEVTCVVVDVSHEDPEVKFNWYVDGVEVHNAKTKPREEQYNSTYRVVSVLTVLHQDWLNGKEYKCKVSNKALPAPIEKTISKAKGQPREPQVYTLPPSRDELPYIIPPYNQVSLTCLVKGFYPSDIAVEWESNGQPENNYKTTPPVLDSDGSFFLYSKLTVGADRWLEGNVFSCSVMHEALHNHYTQKSLSLSPG
light: DIQMTQSPSTLSASVRDRVIITCRASQSIGNRLAWYQHKPGKAPKLLIYEASTSETGVPSRFSGSGSGTDFTLTISSLQPEDFATYYCQQSYSTPYTFGQGTKLEIKRTVAAPSVFIFPPSDEQLKSGTASVVCLLNNFYPREAKVQWKVDNALQSGNSQESVTEQDSKDSTYSLSSTLTLSKADYEKHKVYACEVTHQGLSSPVTKSFNRGEC
notes: PD-L1 site in the Fab, CD137 site in the CH3, LALA; also called anti-human CD137/PD-L1 mAb^2
Kd (hCD137-mFc-Avi): 700 pM
EC50 (nM), IFN-γ release, human MLR [1]: 0.07 nM
EC50 [2]: 800 pM
binding result (hPD-L1-His-Avi): binds
EC50 (nM), IFN-γ release, CEF antigen recall assay (CD8+ T cell activation) [3]: 0.03 nM
